Where a chain is given by its changes, count along the chain named.
B1: ZY0EP0-C07 human IgG1-TM (antibody, V domains shown)
VH: QVQLVESGGVLVKPGGSLRLSCAASGFTLSDYYMSWIRQAPGMGLEWVSYISSSGSTIYYTDSVKGRFTISRDSAKNSLYLQMNSLRAEDTAVYYCARDGVGFDYWGQGTLVTVSS
VL: EIVLTQSPGTLSLFPGERATLSCRASQSVSSSYLAWYQQKPGQSPRLLIYAASSRATGIPDRFSGSGSGTDFTLTISRLEPEDFAVYYCQQYGSSPLYTFGQGTKLEIK
notes: also called ZY0EPO-C07
B2: ZY0EOB-F05 human IgG1-TM (antibody, V domains shown)
VH: QVQLQESGPGLVKPSQTLSLTCTVSDGSISSGGYYWSWIRQHPGKGLEWIGNIYYSGSTYYNPSLKSRVTISVDTSKNQFSLKLNSVTAADTAVYYCATEKALATVTPSGYENYYTVDVWGQGTTVTVSS
VL: DIQLTQSPSFLSASVGDRVTITCWASQGISSYLAWYQQKPGKAPKLLIYAASTLQSGVPSRFSGSGSGTEFTLTISSLQPEDFATYYCQHLNSYPLTFGGGTKVEIK
B3: ZY0EQD-E02 human IgG1-TM (antibody, V domains shown)
VH: QVQLQQWGAGLLKPSETLSLTCAVYGGSFSGYYWNWIRQPPGKGLEWIGEINHSGSTSYNPSLKSRVTISVDTSKNQFSLKLSSVTAADTAVYYCARVLYNWNVDSWGQGTLVTVSS
VL: DIQMTQSPSSLSASVGDRVTITCRASQDIRNDVGWYQQKPGKAPKRLIYAASRLQSGVPSRFSGSGSGTEFTLTISSLQPEDFATYYCLQHNSYPRTFGQGTKVEIK
B4: ZY0EPQ-E02 human IgG1-TM (antibody, V domains shown)
VH: B3 VH with S58N, S70L, V98N, V104L
VL: B3 VL with D28G, V33L, K42R, A50V, R53S

These binders were tested against T1, huB7-H1 (human, UniProt Q9NZQ7 19-238) (assay: ELISA).
T1 construct: Sourced antigen; construct not described; also called Human B7-H1
For ZAP % Viability, OVCAR4 in this document: test concentration or dose not given here.
For ZAP % Viability, SKBR3 in this document: test concentration or dose not given here.

T1 sequence (Q9NZQ7 19-238 limits assumed): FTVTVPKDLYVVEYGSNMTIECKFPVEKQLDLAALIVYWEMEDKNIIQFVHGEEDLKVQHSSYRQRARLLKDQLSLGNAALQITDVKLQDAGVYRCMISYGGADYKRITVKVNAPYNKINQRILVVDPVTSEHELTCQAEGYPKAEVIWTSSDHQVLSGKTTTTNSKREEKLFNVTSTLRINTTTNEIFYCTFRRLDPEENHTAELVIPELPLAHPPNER

| Binder | binding result |
| --- | --- |
| B1 | no binding |
| B2 | no binding |
| B3 | no binding |
| B4 | no binding |

What follows are binders tested against T2, huB7-H2 (human, UniProt O75144 19-258) (assay: ELISA).
T2 construct: Sourced antigen; construct not described; also called Human B7-H2
T2 sequence (looked up): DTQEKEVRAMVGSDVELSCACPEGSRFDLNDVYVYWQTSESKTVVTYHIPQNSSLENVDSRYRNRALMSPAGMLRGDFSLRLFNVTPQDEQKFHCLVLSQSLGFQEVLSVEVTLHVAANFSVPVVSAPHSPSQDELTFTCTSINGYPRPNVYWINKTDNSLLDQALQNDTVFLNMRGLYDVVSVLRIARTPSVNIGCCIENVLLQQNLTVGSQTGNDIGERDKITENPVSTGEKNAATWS

| Binder | binding result |
| --- | --- |
| B1 | no binding |
| B2 | no binding |
| B3 | no binding |
| B4 | no binding |

Each binder was assayed against T3, huB7-H3 (human, UniProt Q5ZPR3 29-461, limits assumed) (assay: ELISA).
T3 construct: Sourced antigen; construct not described; also called Human B7-H3
T3 sequence (looked up): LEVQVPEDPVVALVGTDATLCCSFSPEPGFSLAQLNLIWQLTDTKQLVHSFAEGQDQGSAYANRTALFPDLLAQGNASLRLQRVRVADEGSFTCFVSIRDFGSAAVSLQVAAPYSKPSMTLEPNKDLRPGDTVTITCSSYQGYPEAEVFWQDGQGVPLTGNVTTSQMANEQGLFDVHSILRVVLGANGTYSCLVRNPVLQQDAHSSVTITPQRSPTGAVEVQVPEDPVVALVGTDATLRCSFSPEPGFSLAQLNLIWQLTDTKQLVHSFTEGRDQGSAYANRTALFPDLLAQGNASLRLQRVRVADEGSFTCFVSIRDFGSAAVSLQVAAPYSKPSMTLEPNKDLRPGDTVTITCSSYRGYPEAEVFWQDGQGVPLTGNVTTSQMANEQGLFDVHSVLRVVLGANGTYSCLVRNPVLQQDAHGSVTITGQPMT

| Binder | binding result |
| --- | --- |
| B1 | no binding |
| B2 | no binding |
| B3 | no binding |
| B4 | no binding |

The binders below were run against T4, huBTN1A1 (human, UniProt Q13410 27-242, limits assumed) (assay: ELISA).
T4 construct: Sourced antigen; construct not described; also called Human BTN1A1
T4 sequence (looked up): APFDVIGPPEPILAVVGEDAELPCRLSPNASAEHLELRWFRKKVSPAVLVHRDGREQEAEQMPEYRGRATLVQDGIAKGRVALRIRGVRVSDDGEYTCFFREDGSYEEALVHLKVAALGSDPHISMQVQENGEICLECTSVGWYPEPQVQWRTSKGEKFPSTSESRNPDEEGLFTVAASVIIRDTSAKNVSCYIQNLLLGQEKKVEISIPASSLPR

| Binder | binding result |
| --- | --- |
| B1 | no binding |
| B2 | no binding |
| B3 | no binding |
| B4 | no binding |

These binders were tested against T5, huBTN2A1 (human, UniProt Q7KYR7 29-248, limits assumed) (assay: ELISA).
T5 construct: Sourced antigen; construct not described; also called Human BTN2A1
T5 sequence (looked up): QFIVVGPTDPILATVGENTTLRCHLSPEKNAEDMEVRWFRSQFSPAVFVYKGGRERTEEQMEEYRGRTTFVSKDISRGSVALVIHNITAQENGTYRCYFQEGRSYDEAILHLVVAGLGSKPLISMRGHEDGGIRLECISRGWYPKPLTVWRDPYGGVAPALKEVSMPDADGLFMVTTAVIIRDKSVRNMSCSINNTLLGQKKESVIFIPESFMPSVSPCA

| Binder | binding result |
| --- | --- |
| B1 | no binding |
| B2 | no binding |
| B3 | no binding |
| B4 | no binding |

The binders below were run against T6, human B7-H4 on cells (human, UniProt Q7Z7D3 25-282) (assay: cell-based or functional assay).
T6 sequence: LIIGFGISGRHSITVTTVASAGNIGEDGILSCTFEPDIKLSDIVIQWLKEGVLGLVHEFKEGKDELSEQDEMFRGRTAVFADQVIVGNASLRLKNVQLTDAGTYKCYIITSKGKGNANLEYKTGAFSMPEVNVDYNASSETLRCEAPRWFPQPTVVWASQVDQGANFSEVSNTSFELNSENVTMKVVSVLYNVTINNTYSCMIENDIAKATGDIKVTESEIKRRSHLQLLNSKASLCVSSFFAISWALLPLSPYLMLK

| Binder | ZAP % Viability, OVCAR4 | ZAP % Viability, SKBR3 | ZAP IC50 (M), OVCAR4 | ZAP IC50 (M), SKBR3 |
| --- | --- | --- | --- | --- |
| B1 | 57% | 72% | 1e-08 M | 4e-09 M |
| B2 | 67% | 84% |  |  |
| B3 | 40% | 48% | 2e-08 M | 1e-08 M |
| B4 | 46% | 65% | 2e-08 M | 4e-09 M |

Each binder was assayed against T7, Human B7-H4-Fc (Human B7H4 ECD, Fc_6His) (human) (assay: HTRF binding, human IgG1-TM).
T7 construct: also called FcHis6 tagged human B7-H4
T7 sequence (Q7Z7D3 whole entry, looked up): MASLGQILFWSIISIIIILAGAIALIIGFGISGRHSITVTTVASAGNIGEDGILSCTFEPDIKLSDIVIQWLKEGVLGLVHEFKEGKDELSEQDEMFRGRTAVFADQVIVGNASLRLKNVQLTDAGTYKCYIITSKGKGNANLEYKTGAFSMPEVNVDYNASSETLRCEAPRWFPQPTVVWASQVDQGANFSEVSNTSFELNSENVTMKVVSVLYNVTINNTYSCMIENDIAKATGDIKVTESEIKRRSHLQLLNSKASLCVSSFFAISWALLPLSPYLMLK

| Binder | EC50 | Max |
| --- | --- | --- |
| B1 | 0.31 nM | 1210 |
| B2 | 0.15 nM | 1870 |
| B3 | 0.33 nM | 1270 |
| B4 | 0.41 nM | 1090 |

What follows are binders tested against T8, Murine B7-H4 ECD-Flag-His10 (monomeric) (mouse, UniProt Q7TSP5 25-257) (assay: Octet; summary table, repeats Table 9 (hIgG1-TM)).
T8 construct: extracellular domain; also called FlagHis10 murine B7-H4
T8 sequence (looked up): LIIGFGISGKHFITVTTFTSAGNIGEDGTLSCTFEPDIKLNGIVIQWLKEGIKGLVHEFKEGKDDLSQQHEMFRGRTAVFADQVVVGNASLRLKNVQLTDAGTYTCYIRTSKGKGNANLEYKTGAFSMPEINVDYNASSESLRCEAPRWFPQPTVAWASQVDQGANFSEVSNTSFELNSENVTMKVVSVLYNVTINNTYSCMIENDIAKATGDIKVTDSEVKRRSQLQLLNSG

| Binder | Kd |
| --- | --- |
| B1 | 11 nM |
| B2 | 25 nM |
| B3 | 621 nM |
| B4 | 396 nM |

What follows are binders tested against T9, Human B7H4 ECD (SV), splice variant, 10His_FLAG (human) (assay: Octet; summary table, repeats Table 9 (hIgG1-TM)).
T9 construct: also called B7-H4-SV

| Binder | Kd |
| --- | --- |
| B2 | 174 nM |
| B3 | 801 nM |
| B4 | 1660 nM |

What follows are binders tested against T10, Human B7-H4 ECD-Flag-His10 (monomeric) (human, UniProt Q7Z7D3 25-259) (assay: Octet; summary table, rounded from Table 9 (hIgG1-TM)).
T10 construct: Minimally biotinylated for KinExA; also called hB7H4-ECD-Flag-His10; B7-H4-FLAG
T10 sequence: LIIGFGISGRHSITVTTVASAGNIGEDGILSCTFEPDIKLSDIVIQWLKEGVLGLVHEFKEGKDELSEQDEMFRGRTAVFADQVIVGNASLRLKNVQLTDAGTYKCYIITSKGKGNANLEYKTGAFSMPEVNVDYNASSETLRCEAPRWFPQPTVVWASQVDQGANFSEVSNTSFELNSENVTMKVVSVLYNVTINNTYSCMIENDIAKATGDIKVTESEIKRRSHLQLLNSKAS

| Binder | Kd |
| --- | --- |
| B1 | 9 nM |
| B2 | 13 nM |
| B3 | 14 nM |
| B4 | 26 nM |

— US20240239894A1 (AstraZeneca / MedImmune, published 2024)
